Measured values: patent US8008547B2, “Glyphosate-N-acetyltransferase (GAT) genes” (E.I. duPont de Nemours, priority 2000, dated 2011)

Columns and labels:
yeast strain YPH499 = test: Glyphosate selection of transformed yeast cells; type: cell-based, Saccharomyces cerevisiae; details: CSM-YNB-glucose medium lacking aromatic amino acids with added glyphosate
Text: Selection markers for yeast transformation are usually auxotrophic genes that allow growth of transformed cells on a medium lacking the specific amino acid or nucleotide. Because Saccharomyces cerevisiae is sensitive to glyphosate, GAT can also be used as a selectable marker. […] This plasmid contains an E. coli origin of replication and a gene conferring carbenicillin resistance as well as a TRP1, tryptophan auxotroph selectable marker for yeast transformation.
The GAT containing construct is transformed into E. coli XL1 Blue (Statagene) and plated on LB carbenicillin (50 ug/ml) agar medium. Plasmid DNA is prepared and used to transform yeast strain YPH499 (Stratagene) using a transformation kit (Bio 101). Equal amounts of transformed cells are plated on CSM-YNB-glucose medium (Bio 101) lacking all aromatic amino acids (tryptophan, tyrosine, and phenylalanine) with added glyphosate. For comparison, p424TEF lacking the GAT gene is also introduced into YPH499 and plated as described. […] The presence of the GAT containing vector in glyphosate selected colonies can be confirmed by re-isolation of the plasmid and restriction digest analysis.

tobacco plants = test: Herbicide spray tests of GAT expressing tobacco plants; type: in vivo, Nicotiana tabacum; details: transgenic GAT tobacco
Description: Tobacco shoots generated as described in EXAMPLE 9 were excised from the explants and transferred to basal root induction (BRI) medium composed of half-strength Murashige and Skoog (MS) medium, pH 5.7, with 1.5% sucrose, 0.3% Gelrite, 0-200 uM glyphosate and 400 ug/ml Timentin. Rooted plants and axillary shoots were clonally propagated by cutting the stem and transferring it to fresh BRI medium until the desired number of clones was obtained. Rooted plants were carefully removed from the solid medium. Prior to placing the plants into small pots of soil, the roots were washed to remove any remaining Gelrite. A protective plastic cover was kept over the plants for at least one week until the plants were well established.
To determine if GAT expressing tobacco plants could tolerate simulated field rate sprays of glyphosate, clonal lines of several events per GAT variant were tested. A typical test was set up as follows: One clone from each event was sprayed with 1 ml of solution containing the isopropylamine salt of glyphosate (Sigma P5671) and 0.125% Triton X-100, pH 6.8 such that the amount of active ingredient sprayed was equivalent to that present in commercial glyphosate products. For example, to achieve 32 oz/acre (1×) of herbicide containing 40% active ingredient (“ai”), 2.4 ul of 40% ai formulation was diluted into 1 ml water and sprayed on a plant in a 4-inch square pot (16 in^2). A mock application (0×) with surfactant only was also included. In some cases a second spray was applied 1-4 weeks later. Plants were kept in controlled growth rooms at 25° C. and 70% humidity with 16 hr light.
Seed-grown wild type plants were also sprayed. […] All 0× plants were healthy, including the non-GAT control plants. Three weeks later all of the surviving plants were sprayed with an 8× dose.

B1: SEQ ID NO: 196: evolved GAT gene (nucleic acid)
DNA: ATGCTAGAGGTGAAACCGATTAACGCAGAGGATACCTATGAACTAAGGCATAAAATACTCAGACCAAACCAGCCGTTAGAAGTGTGTATGTATGAAACCGATTTACTTCGTGGTGCATTTCACTTAGGCGGCTTTTACAGGGGCAAACTGATTTCCATAGCTTCATTCCACCAGGCCGAGCACTCAGACCTCCAAGGCCAGAAACAGTACCAGCTCCGAGGTATGGCTACCTTGGAAGGTTATCGTGATCAGAAAGCGGGATCGAGTCTAATTAGACACGCTGAACAAATTCTTCGTAAGAGGGGGGCGGACATGCTTTGGTGCAATGCGCGGACATCCGCCTCAGGCTACTACAAAAAGTTAGGCTTCAGCGAGCAGGGAGAGGTATTTGAAACGCCGCCAGTAGGACCTCACATCCTGATGTATAAAAGGCTCACA
modifications: Synthetic DNA Sequence; 0_6D10
notes: evolved GAT gene
- function as selectable marker in yeast (yeast strain YPH499): efficient selectable marker
- plant response two weeks after glyphosate spray (tobacco plants; 0.5, 2 or 4× glyphosate (1× = 32 oz/acre of 40% ai)): survived the spraying procedure without signs of glyphosate damage
- survival after second spray (tobacco plants; 8× glyphosate dose three weeks later): all GAT plants survived
